# Measured values taken from patent publication US20230038638A1, “COMPLEMENT FACTOR I-RELATED COMPOSITIONS AND METHODS” (published 2023).
# Substitutions are numbered along the chain they refer to.
# Columns and labels:
# [1] = target: T1, human C4b (human) (UniProt P0C0L4)
# T1 sequence: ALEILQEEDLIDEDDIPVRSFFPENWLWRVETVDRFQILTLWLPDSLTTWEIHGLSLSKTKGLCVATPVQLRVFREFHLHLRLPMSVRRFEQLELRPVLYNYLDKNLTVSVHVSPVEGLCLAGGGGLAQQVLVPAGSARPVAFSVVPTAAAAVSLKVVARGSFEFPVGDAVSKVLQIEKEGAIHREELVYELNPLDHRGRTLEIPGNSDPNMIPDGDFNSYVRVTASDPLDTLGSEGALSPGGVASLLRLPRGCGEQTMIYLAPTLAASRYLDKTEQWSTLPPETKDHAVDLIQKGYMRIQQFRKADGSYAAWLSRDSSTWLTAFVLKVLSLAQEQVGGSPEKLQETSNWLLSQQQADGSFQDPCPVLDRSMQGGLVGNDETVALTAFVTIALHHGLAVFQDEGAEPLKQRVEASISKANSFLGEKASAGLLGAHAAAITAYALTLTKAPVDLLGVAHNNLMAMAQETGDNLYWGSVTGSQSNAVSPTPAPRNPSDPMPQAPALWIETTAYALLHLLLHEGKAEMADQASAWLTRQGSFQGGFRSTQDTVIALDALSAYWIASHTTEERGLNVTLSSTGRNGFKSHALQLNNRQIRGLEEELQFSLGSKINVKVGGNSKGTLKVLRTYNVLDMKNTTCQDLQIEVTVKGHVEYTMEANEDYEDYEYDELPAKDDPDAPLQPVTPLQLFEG
# [2] = target: soluble human C3b (human) (UniProt P01024)
# [3] = target: T2, human C4b (human) (UniProt P0C0L5)
# T2 sequence: T1 sequence with A151T, D317G, P364L, C365S, L368I, D369H, N420S, V451A, L454R, S530A
# Chain of Δ(K1-P305); GGSSGG (SEQ ID NO: 6); fH_CCP2-3 (enzyme) (chain): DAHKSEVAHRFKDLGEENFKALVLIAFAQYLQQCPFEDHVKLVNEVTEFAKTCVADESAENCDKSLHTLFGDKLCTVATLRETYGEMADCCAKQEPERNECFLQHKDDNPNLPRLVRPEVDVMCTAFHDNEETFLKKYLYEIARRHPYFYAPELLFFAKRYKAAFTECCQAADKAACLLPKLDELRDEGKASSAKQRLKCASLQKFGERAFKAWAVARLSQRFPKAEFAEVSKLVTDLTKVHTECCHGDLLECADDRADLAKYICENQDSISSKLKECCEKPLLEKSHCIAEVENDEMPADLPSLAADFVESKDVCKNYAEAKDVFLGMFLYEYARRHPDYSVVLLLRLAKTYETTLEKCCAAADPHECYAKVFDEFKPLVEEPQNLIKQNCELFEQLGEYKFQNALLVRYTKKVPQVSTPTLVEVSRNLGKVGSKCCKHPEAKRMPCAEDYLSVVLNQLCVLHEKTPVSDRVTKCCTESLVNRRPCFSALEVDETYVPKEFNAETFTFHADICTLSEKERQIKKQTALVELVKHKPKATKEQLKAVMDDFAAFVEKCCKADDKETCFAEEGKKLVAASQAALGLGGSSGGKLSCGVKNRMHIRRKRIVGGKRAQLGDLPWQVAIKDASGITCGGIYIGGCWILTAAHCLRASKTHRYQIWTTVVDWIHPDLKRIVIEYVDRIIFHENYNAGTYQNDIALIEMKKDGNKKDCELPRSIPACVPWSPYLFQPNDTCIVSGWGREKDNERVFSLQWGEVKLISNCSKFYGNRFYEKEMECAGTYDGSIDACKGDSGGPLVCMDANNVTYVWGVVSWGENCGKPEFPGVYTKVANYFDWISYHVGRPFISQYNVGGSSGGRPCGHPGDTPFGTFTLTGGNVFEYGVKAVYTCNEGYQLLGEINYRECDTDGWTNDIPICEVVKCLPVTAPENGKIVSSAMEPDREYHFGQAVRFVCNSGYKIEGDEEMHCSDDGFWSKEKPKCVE
# Chain of WT; GGSSGG (SEQ ID NO: 6); CCP_2-4 (enzyme) (chain): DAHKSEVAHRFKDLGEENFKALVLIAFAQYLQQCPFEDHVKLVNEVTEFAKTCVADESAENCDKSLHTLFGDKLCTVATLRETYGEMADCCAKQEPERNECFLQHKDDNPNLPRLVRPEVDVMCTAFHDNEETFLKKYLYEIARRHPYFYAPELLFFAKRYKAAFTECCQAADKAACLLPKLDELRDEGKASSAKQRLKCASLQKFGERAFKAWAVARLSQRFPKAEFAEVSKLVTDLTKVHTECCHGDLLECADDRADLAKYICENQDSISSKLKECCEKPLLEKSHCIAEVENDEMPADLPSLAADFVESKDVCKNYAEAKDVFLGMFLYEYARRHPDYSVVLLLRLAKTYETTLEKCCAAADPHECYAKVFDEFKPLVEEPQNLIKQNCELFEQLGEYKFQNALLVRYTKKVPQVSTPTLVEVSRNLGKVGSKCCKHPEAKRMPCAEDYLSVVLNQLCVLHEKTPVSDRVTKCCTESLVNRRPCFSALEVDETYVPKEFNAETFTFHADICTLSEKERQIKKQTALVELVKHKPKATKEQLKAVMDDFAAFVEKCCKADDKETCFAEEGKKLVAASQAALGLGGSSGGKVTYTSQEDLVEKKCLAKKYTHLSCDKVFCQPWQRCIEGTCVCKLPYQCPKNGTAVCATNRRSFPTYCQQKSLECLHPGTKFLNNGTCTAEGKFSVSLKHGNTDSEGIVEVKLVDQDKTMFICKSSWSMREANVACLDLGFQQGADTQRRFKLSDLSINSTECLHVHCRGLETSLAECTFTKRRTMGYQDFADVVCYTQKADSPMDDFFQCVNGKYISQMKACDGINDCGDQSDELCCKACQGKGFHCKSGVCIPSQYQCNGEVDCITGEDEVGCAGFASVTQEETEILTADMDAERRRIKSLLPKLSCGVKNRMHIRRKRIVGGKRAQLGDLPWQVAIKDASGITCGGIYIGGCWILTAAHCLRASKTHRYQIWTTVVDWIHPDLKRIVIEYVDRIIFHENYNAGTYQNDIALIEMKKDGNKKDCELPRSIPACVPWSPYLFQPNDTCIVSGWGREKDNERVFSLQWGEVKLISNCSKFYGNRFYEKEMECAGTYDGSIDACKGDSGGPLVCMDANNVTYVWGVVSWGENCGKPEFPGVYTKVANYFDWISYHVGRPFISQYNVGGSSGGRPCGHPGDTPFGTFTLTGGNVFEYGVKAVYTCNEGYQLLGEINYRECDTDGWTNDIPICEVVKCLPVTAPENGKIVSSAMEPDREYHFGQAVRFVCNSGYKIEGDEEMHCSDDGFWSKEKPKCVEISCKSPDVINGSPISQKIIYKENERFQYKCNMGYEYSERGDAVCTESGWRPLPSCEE
# Chain of WT; GGSSGG (SEQ ID NO: 6); CCP_1-4 (enzyme) (chain): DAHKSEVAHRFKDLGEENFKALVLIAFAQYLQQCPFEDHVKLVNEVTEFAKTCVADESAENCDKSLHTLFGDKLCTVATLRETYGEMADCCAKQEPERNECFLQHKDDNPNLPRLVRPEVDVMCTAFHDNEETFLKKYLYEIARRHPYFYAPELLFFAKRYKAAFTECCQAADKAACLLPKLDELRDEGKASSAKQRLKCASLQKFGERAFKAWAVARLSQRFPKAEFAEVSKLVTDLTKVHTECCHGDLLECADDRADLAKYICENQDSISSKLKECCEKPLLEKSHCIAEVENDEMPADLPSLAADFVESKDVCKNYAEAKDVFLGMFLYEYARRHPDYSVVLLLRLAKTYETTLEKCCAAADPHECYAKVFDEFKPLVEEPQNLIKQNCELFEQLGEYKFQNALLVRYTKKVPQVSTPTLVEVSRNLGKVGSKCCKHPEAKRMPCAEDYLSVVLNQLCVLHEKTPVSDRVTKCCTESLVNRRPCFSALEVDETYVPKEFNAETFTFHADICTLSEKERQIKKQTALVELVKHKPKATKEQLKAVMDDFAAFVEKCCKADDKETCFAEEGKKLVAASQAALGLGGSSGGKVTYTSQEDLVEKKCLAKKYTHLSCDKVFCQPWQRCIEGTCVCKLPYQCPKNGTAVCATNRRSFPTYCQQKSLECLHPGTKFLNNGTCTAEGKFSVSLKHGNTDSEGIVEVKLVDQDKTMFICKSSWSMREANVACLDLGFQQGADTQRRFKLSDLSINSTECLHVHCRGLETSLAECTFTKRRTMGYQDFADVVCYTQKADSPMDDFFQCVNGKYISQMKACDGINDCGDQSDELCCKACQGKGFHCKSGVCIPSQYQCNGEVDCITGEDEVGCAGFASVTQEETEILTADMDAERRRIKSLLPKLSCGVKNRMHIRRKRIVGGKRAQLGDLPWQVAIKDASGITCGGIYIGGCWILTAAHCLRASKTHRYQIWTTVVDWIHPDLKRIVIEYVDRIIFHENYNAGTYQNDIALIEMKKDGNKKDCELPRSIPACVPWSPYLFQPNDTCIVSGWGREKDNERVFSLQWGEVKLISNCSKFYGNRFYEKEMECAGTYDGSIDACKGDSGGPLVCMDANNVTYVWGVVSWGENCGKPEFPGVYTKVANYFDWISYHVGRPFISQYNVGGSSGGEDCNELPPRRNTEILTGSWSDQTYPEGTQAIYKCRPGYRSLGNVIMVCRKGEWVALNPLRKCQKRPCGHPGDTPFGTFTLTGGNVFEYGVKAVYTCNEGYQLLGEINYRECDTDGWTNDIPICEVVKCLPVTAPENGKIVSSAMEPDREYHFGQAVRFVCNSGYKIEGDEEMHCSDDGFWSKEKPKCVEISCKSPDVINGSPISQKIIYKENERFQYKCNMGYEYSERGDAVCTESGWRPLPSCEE
# Chain of Δ(K1-P305); GGSSGG (SEQ ID NO: 6); fH_CCP2-4 (enzyme) (chain): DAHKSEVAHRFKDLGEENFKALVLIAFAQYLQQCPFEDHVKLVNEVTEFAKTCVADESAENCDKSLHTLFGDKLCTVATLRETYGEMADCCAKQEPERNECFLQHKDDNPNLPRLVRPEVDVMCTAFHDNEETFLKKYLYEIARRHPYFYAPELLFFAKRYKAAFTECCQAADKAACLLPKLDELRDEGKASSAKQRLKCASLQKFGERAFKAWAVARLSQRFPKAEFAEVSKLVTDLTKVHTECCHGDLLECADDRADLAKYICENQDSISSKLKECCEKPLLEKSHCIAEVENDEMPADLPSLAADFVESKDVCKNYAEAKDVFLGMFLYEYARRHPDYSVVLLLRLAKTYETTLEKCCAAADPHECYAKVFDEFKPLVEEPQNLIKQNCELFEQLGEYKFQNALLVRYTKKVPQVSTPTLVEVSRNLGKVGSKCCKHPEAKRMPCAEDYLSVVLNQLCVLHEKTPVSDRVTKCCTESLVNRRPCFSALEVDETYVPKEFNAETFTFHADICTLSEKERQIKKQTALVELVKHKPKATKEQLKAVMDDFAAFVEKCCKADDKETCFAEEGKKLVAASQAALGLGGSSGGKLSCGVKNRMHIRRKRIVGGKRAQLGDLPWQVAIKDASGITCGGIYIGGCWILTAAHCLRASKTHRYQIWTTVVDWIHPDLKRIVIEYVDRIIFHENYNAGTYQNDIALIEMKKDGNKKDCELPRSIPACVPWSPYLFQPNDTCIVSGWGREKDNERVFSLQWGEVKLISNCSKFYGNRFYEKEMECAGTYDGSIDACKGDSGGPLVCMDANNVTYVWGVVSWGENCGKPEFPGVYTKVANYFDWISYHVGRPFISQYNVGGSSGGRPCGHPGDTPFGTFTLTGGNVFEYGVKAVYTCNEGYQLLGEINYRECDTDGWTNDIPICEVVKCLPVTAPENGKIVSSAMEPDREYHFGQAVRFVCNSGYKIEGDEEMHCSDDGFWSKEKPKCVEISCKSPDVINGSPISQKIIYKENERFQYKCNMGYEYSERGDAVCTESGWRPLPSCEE
iC3b Screen Ref Fold (fold of CFI-HSA wild type) [2],C4b Screen Ref Fold (fold of CFI-HSA wild type) [3],C4b Screen Ref Fold (fold vs CFI-HSA wild type) [3],iC3b Screen Ref Fold (fold vs CFI-HSA wild type) [2],other results,Substance
1.52,–,–,–,C4b Screen Ref Fold (fold of CFI-HSA wild type) [1]: 1.75,CFI-HSA D425E (enzyme)
1.91,–,–,–,C4b Screen Ref Fold (fold of CFI-HSA wild type) [1]: 1.6,CFI-HSA D425F (enzyme)
1.75,–,–,–,C4b Screen Ref Fold (fold of CFI-HSA wild type) [1]: 1.79,CFI-HSA D425H (enzyme)
1.86,–,–,–,C4b Screen Ref Fold (fold of CFI-HSA wild type) [1]: 1.38,CFI-HSA D425I (enzyme)
0.94,–,–,–,C4b Screen Ref Fold (fold of CFI-HSA wild type) [1]: 1.46,CFI-HSA D425L (enzyme)
0.91,–,–,–,C4b Screen Ref Fold (fold of CFI-HSA wild type) [1]: 2.18,CFI-HSA D425M (enzyme)
1.66,–,–,–,C4b Screen Ref Fold (fold of CFI-HSA wild type) [1]: 1.54,CFI-HSA D425N (enzyme)
0.72,–,–,–,C4b Screen Ref Fold (fold of CFI-HSA wild type) [1]: 0.29,CFI-HSA D425P (enzyme)
1.87,–,–,–,C4b Screen Ref Fold (fold of CFI-HSA wild type) [1]: 1.83,CFI-HSA D425Q (enzyme)
1.27,0.6,–,–,–,CFI-HSA variant Y408L; N422K (enzyme)
2.07,2.54,–,–,–,CFI-HSA variant Y408L; N531G; E416A (enzyme)
–,–,0.01,0,–,CFI-HSA variant Y408L; N531G; E457G; E461Q; R462K; F464Y; S507A (enzyme)
0.97,0.89,–,–,–,CFI-HSA variant Y408L; N531G; P535G (enzyme)
1.2,1.47,–,–,–,CFI-HSA variant Y408L; N531G; P535G; K534Q (enzyme)
1.28,1.02,–,–,–,CFI-HSA variant Y408L; N531G; P535G; P558S (enzyme)
0.05,3.6,–,–,–,CFI-HSA variant Y408L; N531G; P535G; WT; GGSSGG (SEQ ID NO: 6); CR1(ccp15-17) (from UniProt P17927) (enzyme)
0.22,4.17,–,–,–,CFI-HSA variant Y408L; N531G; WT; GGSSGG (SEQ ID NO: 6); CR1(ccp15-17) (from UniProt P17927) (enzyme)
0.26,0.33,–,–,–,CFI-HSA variant Y408L; P535G; K534Q (enzyme)
1.03,0.17,–,–,–,CFI-HSA variant Y408L; P535G; N422K (enzyme)
0.24,0.04,–,–,–,CFI-HSA variant Y408L; P535G; P558S (enzyme)
0.03,3.01,–,–,–,CFI-HSA variant Y408L; P535G; WT; GGSSGG (SEQ ID NO: 6); CR1(ccp15-17) (from UniProt P17927) (enzyme)
0.86,0.31,–,–,–,CFI-HSA variant Y408L; P558S (enzyme)
0.03,3.64,–,–,–,CFI-HSA variant Y408L; WT; GGSSGG (SEQ ID NO: 6); CR1(ccp15-17) (from UniProt P17927) (enzyme)
–,–,0.07,0.24,–,CFI-HSA variant Y408R (enzyme)
0.67,1.37,–,–,–,CFI-HSA variant Y553F (enzyme)
0.35,0.77,–,–,–,CFI-HSA variant Y553F; F559L (enzyme)
0.84,1.26,–,–,–,CFI-HSA variant Y553F; P558S (enzyme)

iC3b Screen Ref Fold (fold of CFI-HSA wild type) [2],C4b Screen Ref Fold (fold of CFI-HSA wild type) [3],C4b Screen Ref Fold (fold vs CFI-HSA wild type) [3],iC3b Screen Ref Fold (fold vs CFI-HSA wild type) [2],other results,Substance
0.5,0.6,–,–,–,CFI-HSA variant Y553F; P558S; F559L (enzyme)
0.32,1.16,–,–,–,CFI-HSA variant Y553H; F559L (enzyme)
0.22,0.69,–,–,–,CFI-HSA variant Y553H; F559L; P558S (enzyme)
0.76,1.23,–,–,–,CFI-HSA variant Y553H; F559L; V565I (enzyme)
0.59,1.58,–,–,–,CFI-HSA variant Y553H; F559L; V565I; P558S (enzyme)
1.32,1.97,–,–,–,CFI-HSA variant Y553H; V565I (enzyme)
0.46,1.75,–,–,–,CFI-HSA variant Y553H; V565I; P558S (enzyme)
–,–,0.06,0.04,–,CFI-HSA variant Δ(K1-P305) (enzyme)
–,–,0.06,0.03,–,CFI-HSA variant Δ(K1-P305); 1317D-R318D-R319D-K320D-R321K (enzyme)
–,–,0.02,0.03,–,CFI-HSA variant Δ(K1-P305); N531G (enzyme)
–,–,0.15,0.05,–,CFI-HSA variant Δ(K1-P305); N531G; P535A (enzyme)
–,–,0.14,0.05,–,CFI-HSA variant Δ(K1-P305); Y408L; N531G (enzyme)
–,–,0.01,0.03,–,CFI-HSA variant Δ(K1-P305); Y408L; N531G; E457G; E461Q; R462K; F464Y (enzyme)
–,–,–,–,C4b Screen Ref Fold (fold relative to CFI-HSA wild type) [3]: 0.21; iC3b Screen Ref Fold (fold relative to CFI-HSA wild type) [2]: -0.01,CFI-HSA variant Δ(S308) (enzyme)
–,–,–,–,C4b Screen Ref Fold (fold relative to CFI-HSA wild type) [3]: 1.57; iC3b Screen Ref Fold (fold relative to CFI-HSA wild type) [2]: 0.54,CFI-HSA variant Δ(V565) (enzyme)
–,–,0.21,0.02,–,WT; GGSSGG (SEQ ID NO: 6); CCP_1-4 (enzyme)
–,–,0.25,0.11,–,WT; GGSSGG (SEQ ID NO: 6); CCP_1-4; GGSS(6) + G; compstatin (enzyme)
–,–,0.25,0.03,–,WT; GGSSGG (SEQ ID NO: 6); CCP_1-5; GGSS(3) + GGG; compstatin (enzyme)
–,–,0.38,0,–,WT; GGSSGG (SEQ ID NO: 6); CCP_2-4 (enzyme)
–,–,1.21,0.77,–,fH_CCP1-4; GGGGSS(7); wt hCFI (enzyme)
–,–,0.97,0.66,–,fH_CCP1-4; GGGGSS(9); wt hCFI (enzyme)
–,–,1.49,0.69,–,fH_CCP1-4; GGSS(11); wt hCFI (enzyme)
–,–,1.63,0.6,–,fH_CCP1-4; GGSS(13); wt hCFI (enzyme)
–,–,0.15,0.04,–,Δ(K1-P305); GGSSGG (SEQ ID NO: 6); fH_CCP1-4 (enzyme)
–,–,0.05,0.01,–,Δ(K1-P305); GGSSGG (SEQ ID NO: 6); fH_CCP2-3 (enzyme)
–,–,0.06,0.03,–,Δ(K1-P305); GGSSGG (SEQ ID NO: 6); fH_CCP2-4 (enzyme)
